± gives the uncertainty stated by the source.
Assay: protein stability index of a GFP-peptide fusion (yeast GPS) (PSI 1-4); higher = more stable; sorted into four equal gates, so the index is relative within each strain
In short: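 Tiled yeast protein peptides of 17 residues were each joined downstream of GFP, on plasmids that also express Cherry. The pooled library was maintained in yeast, and mid-log cultures in leucine-free medium were sorted into four equal gates on the GFP/Cherry ratio. Plasmids from every gate were amplified by PCR and sequenced on Illumina, with barcodes linking reads to strains. The protein stability index of a peptide is its gate-number-weighted read frequency summed over the gates.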

Sequence	protein stability index (doa10∆)	protein stability index (pdr5∆)	protein stability index (san1∆)	protein stability index (ubr1∆)
DPPFRIEEQGWGGFPLD [TAF14]	3.32 ± 0.055	3.33 ± 0.052	3.44 ± 0.048	3.34 ± 0.047
DPRIAPLRGALATYGLT [FAS2]	2.37 ± 0.1	2.51 ± 0.16	2.38 ± 0.13	2.04 ± 0.056
DPSISNNIRQAICRYAN [RRP4]	2.09 ± 0.077	2.06 ± 0.049	1.59 ± 0.11	2.43 ± 0.056
DPVEGNLEFDSTNHPDY [SRP14]	2.9 ± 0.066	2.79 ± 0.068	3.09 ± 0.049	2.95 ± 0.051
DPYELKGEVVLVNIRTQ [ITC1]	1.57 ± 0.098	2.66 ± 0.14	2.45 ± 0.11	2.3 ± 0.099
DQCVGQVGLNFELSFTG [YMR129W/POM152]	2.94 ± 0.061	3.01 ± 0.077	3.06 ± 0.046	2.97 ± 0.043
DQDELVQPPLDKFPYKK [SWP82]	3.11 ± 0.088	3.26 ± 0.093	3.13 ± 0.059	3.08 ± 0.066
DQKFGVPVRSFKGHSHI [ASC1]	3.11 ± 0.092	3.19 ± 0.064	2.99 ± 0.07	3.25 ± 0.058
DQNNATMGEETAKKDMS [SNF12]	3.44 ± 0.082	3.34 ± 0.11	3.21 ± 0.12	3.32 ± 0.09
DRELSVRNACKRLIAHD [YCG1]	2.59 ± 0.097	2.77 ± 0.27	2.49 ± 0.26	2.67 ± 0.18
DRIYMLFHFEEDEGEEL [PRP8]	1.64 ± 0.065	1.49 ± 0.064	1.5 ± 0.17	1.93 ± 0.057
DRSLADDYDYVMYGTAY [RPB8]	2.56 ± 0.059	2.98 ± 0.064	3.02 ± 0.063	2.73 ± 0.074
DRVEDICERIFEQGQAL [RRI2]	2.72 ± 0.12	3.02 ± 0.17	3.18 ± 0.22	–
DRVFNVPTIGVVNSNFA [YJR042W/NUP85]	2.57 ± 0.08	2.7 ± 0.085	2.48 ± 0.086	2.5 ± 0.036
DSELNRALFETKLNLHC [RRI1]	2.75 ± 0.067	2.79 ± 0.053	3 ± 0.038	2.92 ± 0.055
DSESESGDKEATAPLIQ [RPN8]	3.44 ± 0.19	3.44 ± 0.12	3.28 ± 0.093	3.49 ± 0.28
DSIPLRITNSFYSTNSQ [RPN9]	2.56 ± 0.14	2.65 ± 0.13	2.58 ± 0.18	2.9 ± 0.21
DSKDGTTLNIKVEKRVL [SMB1]	–	3.66 ± 0.22	–	3.45 ± 0.27
DSKMIQDLSRNTLGKGQ [SNU114]	3.25 ± 0.098	3.34 ± 0.11	3.34 ± 0.12	3.61 ± 0.14
DSLENNEGVPSPMLSIS [FAS1]	3.08 ± 0.077	2.56 ± 0.062	2.4 ± 0.1	3.29 ± 0.094
DSLIFKDSSLNYSSESY [YJL039C/NUP192]	3.43 ± 0.089	3.25 ± 0.1	2.71 ± 0.21	3.17 ± 0.14
DSLNEWIKFDQELYNEL [RPN7]	3.18 ± 0.11	3.17 ± 0.19	3.17 ± 0.074	3.19 ± 0.073
DSLNQLEIRNKICSSEM [RGR1]	2.24 ± 0.22	3.11 ± 0.11	2.65 ± 0.14	2.61 ± 0.22
DSMLFVFGFRANKMRQD [SMC4]	2.27 ± 0.072	2.24 ± 0.08	2.08 ± 0.12	2.7 ± 0.057
DSVLLNRGNKKRHRSSY [YML031W/NDC1]	3.03 ± 0.099	3.25 ± 0.1	3.04 ± 0.06	3.15 ± 0.076
DSYIALYEKDIVPSMTH [RET1]	2.5 ± 0.066	2.51 ± 0.07	2.46 ± 0.075	2.65 ± 0.067
DTKLKAHELQSEDVSRD [YIL149C/MLP2]	2.77 ± 0.058	2.95 ± 0.055	3.03 ± 0.048	2.86 ± 0.047

Sequence	protein stability index (doa10∆)	protein stability index (pdr5∆)	protein stability index (san1∆)	protein stability index (ubr1∆)
DTLCGIRKLTLRDTFIE [RPO21]	2.91 ± 0.085	1.58 ± 0.058	1.26 ± 0.1	1.46 ± 0.056
DTLKENATEVQKESDAK [ITC1]	2.87 ± 0.11	2.94 ± 0.12	2.85 ± 0.086	3.16 ± 0.26
DTSRPDLEWQELTSFSS [DSN1]	3.18 ± 0.053	3.05 ± 0.053	3.08 ± 0.055	2.85 ± 0.042
DTSTQAYEEEEENEDND [NUT1]	3.24 ± 0.13	3.5 ± 0.17	3.54 ± 0.18	3.39 ± 0.12
DTVAELQAQLDYLNAEL [FAS2]	2.81 ± 0.092	3.08 ± 0.081	3.12 ± 0.049	2.96 ± 0.09
DVAAKCKEVGITAVHVK [RPS14A]	2.56 ± 0.057	2.81 ± 0.065	2.72 ± 0.062	2.62 ± 0.041
DVAFLKTAYSIYLSQNE [RPN1]	2.25 ± 0.052	2.51 ± 0.056	2.16 ± 0.062	2.64 ± 0.058
DVEIGRMPIMLRSNKCI [RET1]	1.23 ± 0.15	1.27 ± 0.11	1.14 ± 0.27	1.07 ± 0.11
DVHNGYILRYLHANGAS [COB]	2.83 ± 0.096	2.37 ± 0.093	1.93 ± 0.11	2.5 ± 0.079
DVKCWSKFIEKFQDIVS [MED1]	1.83 ± 0.12	2.62 ± 0.12	2.09 ± 0.14	1.89 ± 0.1
DVKSSDSLKLNSKPVEL [YJL041W/NSP1]	3.27 ± 0.098	3.09 ± 0.12	3.1 ± 0.14	3.23 ± 0.12
DVNEKIRFRIEREVFVD [RPC25]	1.81 ± 0.074	1.29 ± 0.066	1.56 ± 0.13	1.2 ± 0.044
DVNSASKSESDSQIVTP [RRP4]	3.17 ± 0.088	3.28 ± 0.073	3.06 ± 0.099	2.78 ± 0.1
DVSIEELLREWLETYSE [IRR1]	3.38 ± 0.056	3.34 ± 0.075	3.56 ± 0.067	3.33 ± 0.047
DVTALLEQGFKVVSAKE [YCS4]	2.48 ± 0.12	1.68 ± 0.077	2.9 ± 0.098	3.37 ± 0.16
DVVERLHKNFESENFKI [RGR1]	3.74 ± 0.18	3.4 ± 0.3	3.23 ± 0.18	3.81 ± 0.18
DVVMKATEPQMVLFNIY [PRP8]	2.03 ± 0.046	1.76 ± 0.049	1.58 ± 0.078	1.77 ± 0.043
DVYTLPSYVHFKVQIIE [YML103C/NUP188]	1.61 ± 0.055	1.71 ± 0.05	1.43 ± 0.069	1.66 ± 0.033
DWIRFVSIRQNQYKLVF [RPL22B]	1.37 ± 0.076	1.48 ± 0.041	1.26 ± 0.1	1.26 ± 0.055
DYFFYFLVLYDVKTAEE [NUT1]	1.52 ± 0.043	1.46 ± 0.044	1.62 ± 0.094	1.76 ± 0.04
DYISGISVGLYDTTPLL [SKI6]	2.42 ± 0.12	2.28 ± 0.1	1.84 ± 0.084	2.26 ± 0.13
DYPDDSGWTPFHIACSV [NAS6]	3.37 ± 0.11	2.28 ± 0.099	2.48 ± 0.12	2.27 ± 0.29
DYRVLVDKSRKVAHTSY [PRE8]	2.81 ± 0.12	2.48 ± 0.13	2.3 ± 0.13	2.08 ± 0.095
EAAAKEKDELDNIEVSK [QCR7]	3.18 ± 0.098	3.41 ± 0.079	3.29 ± 0.084	3.22 ± 0.055
EAEFSLRELSCCINAAF [RRP46]	2.63 ± 0.053	2.83 ± 0.064	2.76 ± 0.047	2.97 ± 0.056
EAFGNIKIDAKPALFER [MCD1]	2.11 ± 0.083	2.89 ± 0.15	1.84 ± 0.21	2.58 ± 0.078

— the supplement of paper PMC9732359
